Target: the molecule itself
Assay: gel filtration on Superdex 200 HR

B1: IR485 (human insulin receptor residues 1-485 with enterokinase site and c-myc tag) (receptor)
chain: HLYPGEVCPGMDIRNNLTRLHELENCSVIEGHLQILLMFKTRPEDFRDLSFPKLIMITDYLLLFRVYGLESLKDLFPNLTVIRGSRLFFNYALVIFEMVHLKELGLYNLMNITRGSVRIEKNNELCYLATIDWSRILDSVEDNYIVLNKDDNEECGDICPGTAKGKTNCPATVINGQFVERCWTHSHCQKVCPTICKSHGCTAEGLCCHSECLGNCSQPDDPTKCVACRNFYLDGRCVETCPPPYYHFQDWRCVNFSFCQDLHHKCKNSRRQGCHQYVIHNNKCIPECPSGYTMNSSNLLCTPCLGPCPKVCHLLEGEKTIDSVTSAQELRGCTVINGSLIINIRGGNNLAAELEANLGLIEEISGYLKIRRSYALVSLSFFRKLRLIRGETLEIGNYSFYALDNQNLRQLWDWSKHNLTITQGKLFFHYNPKLCLSEIHKMEEVSGTKGRQERNDIALKTNGDQASCENELLKFSYIRTSFDKISDDDDKEQKLISEEDLN
  binding result: binds

— patent EP2468767B1 (dated 2007)
